Numbered stars: 1 amine (or outer) side, 2 acyl side, 3 side chain; on linkers, the order of the positions; unused ones are H or OH. Bridge positions count the residues as written; N and C are the ends. Square brackets hold non-standard residues; d marks the D form. Ends that are not written are not given here. Phe(2,5-F2) = 2,5-difluorophenylalanine, O=C([C@H](Cc1cc(F)ccc1F)N[*:1])[*:2]; X12 = (S)‑(trifluoromethyl)‑L‑cysteine, O=C([C@H](CSC(F)(F)F)N[*:1])[*:2]; Oic = O=C(O)[C@@H]1C[C@@H]2CCCC[C@@H]2N1; Phe(2-Cl) = N[C@@H](Cc1ccccc1Cl)C(=O)O; tBuAla = CC(C)(C)C[C@H](N)C(=O)O; Chg = N[C@H](C(=O)O)C1CCCCC1; Pen = CC(C)(S)[C@H](N)C(=O)O; ΔPro = O=C(O)[C@@H]1C=CCN1; NMeC = CN[C@@H](CS)C(=O)O; Orn = NCCC[C@H](N)C(=O)O; Abu = CC[C@H](N)C(=O)O; Sar = CNCC(=O)O
T1: Recombinant human MASP1 enzyme (fragment corresponding to amino acids 297-699, C-terminal His Tag) (human, UniProt P48740 297-699)
T1 sequence: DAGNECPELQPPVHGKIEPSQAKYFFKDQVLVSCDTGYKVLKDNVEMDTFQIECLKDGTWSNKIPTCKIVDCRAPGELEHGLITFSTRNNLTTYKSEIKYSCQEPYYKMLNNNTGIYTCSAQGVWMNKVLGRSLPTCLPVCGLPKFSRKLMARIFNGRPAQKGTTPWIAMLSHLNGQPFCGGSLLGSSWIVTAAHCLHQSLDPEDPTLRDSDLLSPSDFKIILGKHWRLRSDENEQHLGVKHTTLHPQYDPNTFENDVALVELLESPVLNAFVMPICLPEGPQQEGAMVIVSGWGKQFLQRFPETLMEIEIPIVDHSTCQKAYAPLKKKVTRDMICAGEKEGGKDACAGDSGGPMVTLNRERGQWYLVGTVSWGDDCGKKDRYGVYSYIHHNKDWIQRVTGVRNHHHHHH


Key:
[1] = biological target: T1, Recombinant human MASP1 enzyme …; assay: cell-based or functional assay
[2] = biological target: Recombinant human MASP2 enzyme (fragment corresponding to amino acids 297-686, C-terminal His Tag) (human, UniProt O00187 297-686); assay: cell-based or functional assay
Chain of Recombinant human MASP2 enzyme (fragment corresponding to amino acids 297-686, C-terminal His Tag) (O00187 other isoform, or with tags, fused parts or gaps limits assumed): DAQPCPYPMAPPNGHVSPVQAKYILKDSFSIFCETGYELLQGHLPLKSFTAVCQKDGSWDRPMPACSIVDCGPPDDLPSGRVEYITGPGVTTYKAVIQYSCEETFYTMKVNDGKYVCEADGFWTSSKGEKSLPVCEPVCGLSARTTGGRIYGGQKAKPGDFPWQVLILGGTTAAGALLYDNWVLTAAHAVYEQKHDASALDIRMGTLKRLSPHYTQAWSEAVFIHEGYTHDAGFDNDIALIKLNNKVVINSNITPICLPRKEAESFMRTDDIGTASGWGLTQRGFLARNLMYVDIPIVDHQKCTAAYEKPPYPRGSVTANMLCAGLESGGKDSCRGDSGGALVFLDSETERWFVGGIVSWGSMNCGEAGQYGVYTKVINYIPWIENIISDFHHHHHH

| Binder | human MASP1 IC50 [1] [nM] | human MASP2 IC50 [2] [nM] |
| --- | --- | --- |
| {2‑(3-Pyridyl)acetyl}-ICSRS[tBuAla]PPI[Pen]IP-NH2 (disulfide 2-10) [(2-(3-Pyridyl)acetic acid)-IC+SRS-((tBu)A)-PPI-(Pen)+IP-NH2] | 7 | 8.5 |
| [Abu]ICSRSLPPICIPD-NH2 (disulfide 3-11; N-terminus assumed; SMILES CC[C@H](N)C(=O)N[C@H](C(=O)N[C@H]1CSSC[C@@H](C(=O)N[C@H](C(=O)N2CCC[C@H]2C(=O)N[C@@H](CC(=O)O)C(N)=O)[C@@H](C)CC)NC(=O)[C@H]([C@@H](C)CC)NC(=O)[C@@H]2CCCN2C(=O)[C@@H]2CCCN2C(=O)[C@H](CC(C)C)NC(=O)[C@H](CO)NC(=O)[C@H](CCCNC(=N)N)NC(=O)[C@H](CO)NC1=O)[C@@H](C)CC) [(Abu)-IC+SRSLPPIC+IPD-NH2] | 7.2 | 300 |
| [Orn]ICSRSLPPICI-NH2 (disulfide 3-11; N-terminus assumed; SMILES CC[C@H](C)[C@H](NC(=O)[C@@H]1CSSC[C@H](NC(=O)[C@@H](NC(=O)[C@@H](N)CCCN)[C@@H](C)CC)C(=O)N[C@@H](CO)C(=O)N[C@@H](CCCNC(=N)N)C(=O)N[C@@H](CO)C(=O)N[C@@H](CC(C)C)C(=O)N2CCC[C@H]2C(=O)N2CCC[C@H]2C(=O)N[C@@H]([C@@H](C)CC)C(=O)N1)C(N)=O) [(Orn)-IC+SRSLPPIC+I-NH2] | 7.8 | 190 |
| AICSRS[Phe(2-Cl)]PPI[NMeC]IPD-NH2 (disulfide 3-11; N-terminus assumed; SMILES CC[C@H](C)[C@H](NC(=O)[C@H](C)N)C(=O)N[C@H]1CSSC[C@@H](C(=O)N[C@H](C(=O)N2CCC[C@H]2C(=O)N[C@@H](CC(=O)O)C(N)=O)[C@@H](C)CC)N(C)C(=O)[C@H]([C@@H](C)CC)NC(=O)[C@@H]2CCCN2C(=O)[C@@H]2CCCN2C(=O)[C@H](Cc2ccccc2Cl)NC(=O)[C@H](CO)NC(=O)[C@H](CCCNC(=N)N)NC(=O)[C@H](CO)NC1=O) [AIC+SRS-((2-Chloro)F)-PPI-((N-Me)C)+IPD-NH2] | 8.1 | 130 |
| [dA]ICSRS[X12]PPI[Pen]IP-NH2 (disulfide 3-11; N-terminus assumed; SMILES CC[C@H](C)[C@H](NC(=O)[C@@H](C)N)C(=O)N[C@H]1CSSC(C)(C)[C@@H](C(=O)N[C@H](C(=O)N2CCC[C@H]2C(N)=O)[C@@H](C)CC)NC(=O)[C@H]([C@@H](C)CC)NC(=O)[C@@H]2CCCN2C(=O)[C@@H]2CCCN2C(=O)[C@H](CSC(F)(F)F)NC(=O)[C@H](CO)NC(=O)[C@H](CCCNC(=N)N)NC(=O)[C@H](CO)NC1=O) [aIC+SRS-((S)-(trifluoromethyl)-L-cysteine)-PPI-(Pen)+IP-NH2] | 7.3 | 19 |
| AICSRS[tBuAla]P[Oic]I[NMeC]IPD-OH (disulfide 3-11; N-terminus assumed; SMILES CC[C@H](C)[C@H](NC(=O)[C@H](C)N)C(=O)N[C@H]1CSSC[C@@H](C(=O)N[C@H](C(=O)N2CCC[C@H]2C(=O)N[C@@H](CC(=O)O)C(=O)O)[C@@H](C)CC)N(C)C(=O)[C@H]([C@@H](C)CC)NC(=O)[C@@H]2C[C@@H]3CCCC[C@@H]3N2C(=O)[C@@H]2CCCN2C(=O)[C@H](CC(C)(C)C)NC(=O)[C@H](CO)NC(=O)[C@H](CCCNC(=N)N)NC(=O)[C@H](CO)NC1=O) [AIC+SRS-((tBu)A)-P-(Oic)-I-((N-Me)C)+IPD-OH] | 7.2 | 190 |
| AICSRSL[ΔPro][Oic]I[Pen]IPD-OH (disulfide 3-11; N-terminus assumed; SMILES CC[C@H](C)[C@H](NC(=O)[C@H](C)N)C(=O)N[C@H]1CSSC(C)(C)[C@@H](C(=O)N[C@H](C(=O)N2CCC[C@H]2C(=O)N[C@@H](CC(=O)O)C(=O)O)[C@@H](C)CC)NC(=O)[C@H]([C@@H](C)CC)NC(=O)[C@@H]2C[C@@H]3CCCC[C@@H]3N2C(=O)[C@@H]2C=CCN2C(=O)[C@H](CC(C)C)NC(=O)[C@H](CO)NC(=O)[C@H](CCCNC(=N)N)NC(=O)[C@H](CO)NC1=O) [AIC+SRSL-(L-dehydroproline)-(Oic)-I-(Pen)+IPD-OH] | 9.3 | 64 |
| [2‑(Cyclohexylamino)acetyl]ICSRS[tBuAla]PPI[Pen]IPD-NH2 (disulfide 3-11) [(2-(Cyclohexylamino)acetyl)-IC+SRS-((tBu)A)-PPI-(Pen)+IPD-NH2] | 7.1 | 200 |
| [Sar]ICSRSLPPI[NMeC]IPD-OH (disulfide 3-11; N-terminus assumed; SMILES CC[C@H](C)[C@H](NC(=O)CNC)C(=O)N[C@H]1CSSC[C@@H](C(=O)N[C@H](C(=O)N2CCC[C@H]2C(=O)N[C@@H](CC(=O)O)C(=O)O)[C@@H](C)CC)N(C)C(=O)[C@H]([C@@H](C)CC)NC(=O)[C@@H]2CCCN2C(=O)[C@@H]2CCCN2C(=O)[C@H](CC(C)C)NC(=O)[C@H](CO)NC(=O)[C@H](CCCNC(=N)N)NC(=O)[C@H](CO)NC1=O) [((N-Me)G)-IC+SRSLPPI-((N-Me)C)+IPD-OH] | 7.3 | 1700 |
| AICSRS[tBuAla]P[Oic]ICIPD-NH2 (disulfide 3-11; N-terminus assumed; SMILES CC[C@H](C)[C@H](NC(=O)[C@H](C)N)C(=O)N[C@H]1CSSC[C@@H](C(=O)N[C@H](C(=O)N2CCC[C@H]2C(=O)N[C@@H](CC(=O)O)C(N)=O)[C@@H](C)CC)NC(=O)[C@H]([C@@H](C)CC)NC(=O)[C@@H]2C[C@@H]3CCCC[C@@H]3N2C(=O)[C@@H]2CCCN2C(=O)[C@H](CC(C)(C)C)NC(=O)[C@H](CO)NC(=O)[C@H](CCCNC(=N)N)NC(=O)[C@H](CO)NC1=O) [AIC+SRS-((tBu)A)-P-(Oic)-I-C+IPD-NH2] | 7.4 | 260 |
| AICSRS[Phe(2,5-F2)]PPI[NMeC]IPD-NH2 (disulfide 3-11; N-terminus assumed; SMILES CC[C@H](C)[C@H](NC(=O)[C@H](C)N)C(=O)N[C@H]1CSSC[C@@H](C(=O)N[C@H](C(=O)N2CCC[C@H]2C(=O)N[C@@H](CC(=O)O)C(N)=O)[C@@H](C)CC)N(C)C(=O)[C@H]([C@@H](C)CC)NC(=O)[C@@H]2CCCN2C(=O)[C@@H]2CCCN2C(=O)[C@H](Cc2cc(F)ccc2F)NC(=O)[C@H](CO)NC(=O)[C@H](CCCNC(=N)N)NC(=O)[C@H](CO)NC1=O) [AIC+SRS-((2,5-Difluoro)F)-PPI-((N-Me)C)+IPD-NH2] | 7.6 | 63 |
| [Orn]ICSRSLPP[Chg]CIPD-OH (disulfide 3-11; N-terminus assumed; SMILES CC[C@H](C)[C@H](NC(=O)[C@@H](N)CCCN)C(=O)N[C@H]1CSSC[C@@H](C(=O)N[C@H](C(=O)N2CCC[C@H]2C(=O)N[C@@H](CC(=O)O)C(=O)O)[C@@H](C)CC)NC(=O)[C@H](C2CCCCC2)NC(=O)[C@@H]2CCCN2C(=O)[C@@H]2CCCN2C(=O)[C@H](CC(C)C)NC(=O)[C@H](CO)NC(=O)[C@H](CCCNC(=N)N)NC(=O)[C@H](CO)NC1=O) [(Orn)-IC+SRSLPP-(Chg)-C+IPD-OH] | 6.9 | 49 |
